± gives the standard deviation of the averaged measurements.
System: Saccharomyces cerevisiae
Test: protein stability index of tFT-peptide fusion (C-terminal peptide) (PSI (0-1 scale)); higher = more stable (slower turnover)
Details: temperature: 30 C
Procedure: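 MPS profiling in S. cerevisiae of the yeast C-terminome library: the last 12 aa of each annotated ORF are fused to the C-terminus of a sfGFP-mCherry timer, after a GGGS linker. Cells are FACS-sorted into 8 mCherry/sfGFP bins and deep-sequenced. PSI runs from 0 (unstable) to 1 (stable); wild type and das1Δ backgrounds, two technical replicates each.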

[1] = genetic background: das1 deletion

Sequence	protein stability index [1]	protein stability index (genetic background: wild type)
DSTAPKPIPGKE [YKL030W C-terminal 12 aa]	0.68 ± 0.0037	0.663 ± 0.009
DTSLYRYRSYGY [PUF2 C-terminal 12 aa]	0.7007 ± 0.0045	0.683 ± 0.033
DTSPAQEQSPAN [ARG80 C-terminal 12 aa]	0.695 ± 0.026	0.709 ± 0.013
DTTFTGCTKKIL [YGL102C C-terminal 12 aa]	0.698 ± 0.023	0.66 ± 0.019
DVEVVCRQNNFV [YDR327W C-terminal 12 aa]	0.723 ± 0.0082	0.724 ± 0.025
DYKLLKELASQV [GLT1 C-terminal 12 aa]	0.66531 ± 0.00065	0.635 ± 0.054
DYLYAKDDLLKW [GPP1 C-terminal 12 aa]	0.7287 ± 0.0048	0.709 ± 0.011
EALVKQITSVKQ [SCC4 C-terminal 12 aa]	0.6973 ± 0.006	0.701 ± 0.015
EDGAVGNLFDDN [MSN5 C-terminal 12 aa]	0.681 ± 0.018	0.667 ± 0.033
EDGRPPQNDFKE [TIM22 C-terminal 12 aa]	0.699 ± 0.0092	0.734 ± 0.057
EDHKFDLSTITV [MRPL24 C-terminal 12 aa]	0.703 ± 0.01	0.717 ± 0.023
EDKGLLSCCTVM [YCP4 C-terminal 12 aa]	0.786 ± 0.011	0.743 ± 0.032
EEADSLYISMGL [LCD1 C-terminal 12 aa]	0.709 ± 0.021	0.701 ± 0.012
EEAFGKVQTKTF [SOL3 C-terminal 12 aa]	0.7098 ± 0.0052	0.7564 ± 0.0044
EEFSSGDYSMDY [RIE1 C-terminal 12 aa]	0.7024 ± 0.006	0.66 ± 0.025
EEMIRSSSLYDE [ACA1 C-terminal 12 aa]	0.7312 ± 0.0059	0.711 ± 0.029
EENENDCDSEIQ [RTS1 C-terminal 12 aa]	0.7103 ± 0.0013	0.696 ± 0.0094
EGVRNRRKALKK [ARO3 C-terminal 12 aa]	0.684 ± 0.027	0.669 ± 0.022
EGVSIIESTFIN [YLR225C C-terminal 12 aa]	0.693 ± 0.012	0.68 ± 0.051
EHCPGVNEDDHK [CMG1 C-terminal 12 aa]	0.703 ± 0.011	0.701 ± 0.026
EIKKIYQNEKKI [DPC7 C-terminal 12 aa]	0.726 ± 0.044	0.677 ± 0.029

Sequence	protein stability index [1]	protein stability index (genetic background: wild type)
EILSMPDLSKYQ [SDH5 C-terminal 12 aa]	0.6922 ± 0.0032	0.704 ± 0.044
EINNNLGVRLVD [DMA1 C-terminal 12 aa]	0.711 ± 0.012	0.697 ± 0.026
EIRNMVINSTKD [BFA1 C-terminal 12 aa]	0.713 ± 0.008	0.688 ± 0.021
EKDELDNIEVSK [QCR7 C-terminal 12 aa]	0.696 ± 0.0052	0.683 ± 0.0078
EKFLGKKKTKTD [GPI16 C-terminal 12 aa]	0.701 ± 0.06	0.689 ± 0.05
EKKIATRGAFAC [MCO32 C-terminal 12 aa]	0.707 ± 0.01	0.7 ± 0.012
EKQYVKILDDTH [CSF1 C-terminal 12 aa]	0.716 ± 0.011	0.695 ± 0.037
EKRFPEVMMLEK [FET4 C-terminal 12 aa]	0.703 ± 0.026	0.679 ± 0.0099
EKVNEILRSTEK [GCD14 C-terminal 12 aa]	0.69 ± 0.0098	0.717 ± 0.0097
EKWKINKKETVE [MOD5 C-terminal 12 aa]	0.697 ± 0.03	0.7095 ± 0.0026
ELAYKSFYALLD [VPS28 C-terminal 12 aa]	0.691 ± 0.019	0.702 ± 0.045
ELENEHVPWGKK [HNM1 C-terminal 12 aa]	0.714 ± 0.032	0.667 ± 0.015
ELIISKREIEKE [GEA1 C-terminal 12 aa]	0.724 ± 0.022	0.731 ± 0.079
ELKRSGKLTRSV [TRM7 C-terminal 12 aa]	0.699 ± 0.0086	0.662 ± 0.013
ELLYLIIAGLHI [FYV5 C-terminal 12 aa]	0.6959 ± 0.0029	0.7 ± 0.05
ELRERLLRPSKK [YPL245W C-terminal 12 aa]	0.7246 ± 0.0023	0.771 ± 0.032
ELTKQHGNKDSN [RTK1 C-terminal 12 aa]	0.7 ± 0.025	0.659 ± 0.0056
ENDDHLYIFGRN [TIM18 C-terminal 12 aa]	0.743 ± 0.033	0.731 ± 0.045
ENVEEDKEVHTN [PBI2 C-terminal 12 aa]	0.675 ± 0.036	0.6976 ± 0.0046
EPSLRGHLIFVL [YBR300C C-terminal 12 aa]	0.515 ± 0.0098	0.5178 ± 0.0049
